In patent US20250270315A1:
Like-named read-outs stand apart in the source and are kept apart here. Each block holds one binder with its values, some of them ahead of it.

Tests used:
[1] = molecular target: cyno SIRPα stably expressed on CHOK1 cells (cyno); assay: FACS, CHOK1-cyno SIRPα cells
[2] = molecular target: human SIRPα v2 expressed on cells (CHOK1 stable line KYinno KC-1720) (human) (UniProt P78324); assay: FACS, CHOK1-hSIRPα v2 cells
[3] = molecular target: Human SIRPα v2 (antigen of the Octet and Biacore affinity measurements) (human) (UniProt P78324); assay: BLI (Octet), 1:1 binding model
[4] = molecular target: cyno SIRPα stably expressed on CHOK1 cells (cyno); assay: FACS, CHOK1-Cyno SIRPα cells
[5] = molecular target: Human SIRPα v2 (antigen of the Octet and Biacore affinity measurements) (human) (UniProt P78324); assay: SPR (Biacore), 1:1 binding model
[6] = molecular target: human SIRPα v2 expressed on cells (CHOK1 stable line KYinno KC-1720) (human) (UniProt P78324); assay: FACS, CHOK1-hSIRPα v2 cells; remark: listed apart in the source
[7] = molecular target: human SIRPα v2 expressed on cells (CHOK1 stable line KYinno KC-1720) (human) (UniProt P78324); assay: competitive FACS, mFc-CD47 ECD on CHOK1-human SIRPα v2 cells

B1: 025 (antibody, V domains shown)
VH: EVQLQQSGAELVKPGASVKLSCTASGFNIKDYYMHWVKQRTEQGLEWIGRIDPEDGETKYAPKFQGKATITADTSSNTAYLQLSSLTSEDTAVYYCDRGLAYWGQGTLVTVSA
VL: QIVLTQSPAIMSASPGEKVTLTCSASSSVSSSYLYWYQQKPGSSPKLWIYSTSNLASGVPARFSGSGSGTSYSLTISSMEAEDAASYFCHQWSSYPYTFGGGTKLEIK
MFI at 10 nM [1]: 8560 MFI

B2: 042 (antibody, V domains shown)
VH: QIQLVQSGPELKKPGETVKISCRASGYTFTTYGMSWVKQAPGKGLRWMGWINTYSGVSTCADDFKGRFAFSLETSATTAYLQIHNLTNEDTATYFCARDPHSYGNSPAWFPYWGQGTLVTVSA
VL: DIVMTQSQKFMSTTIRDRVSITCKASQNVGISVAWYQQKSGQSPKLLIYSASNRYTGVPDRFTGSGSGTDFTLTISNMQSEDLADYFCQQYSSYPLTFGSGTKLAIK
MFI at 10 nM [1]: 6850 MFI

B3: 015c (antibody, V domains shown)
VH: EVQLQQSGVEVVQPGASVKLSCTASGFNIEAYYMHWVKQRTEQGLEWIGRIDPEDGESKYAPKFQGKATMTADTSSSTAYLQLSSLTSDDTAVYYCVRGSYEYWGQGTTLTVSS
VL: QIVLTQSPAIMSASPGEKVTLTCSASSSVSSSYLYWYQQKPGSSPKLWIYSTSNLASGVPPRFSGSGSGTSYSLTISSMQAEDAASYFCYQWSSYPYTFGGGTKLEIK
EC50 [2]: 1.58 nM | TOP MFI [2]: 50100 MFI | Kd [3]: 0.937 nM | koff [3]: 0.00117 s⁻¹ | kon [3]: 1.24e+06 M⁻¹ s⁻¹ | EC50 [4]: 0.69 nM | TOP MFI [4]: 29700 MFI

B4: 042c (antibody, V domains shown)
VH: QIQLVQSGPELKKPGETVKISCRASGYTFTTYGMSWVKQAPGKGLRWMGWINTYSGVSTCADDFKGRFAFSLETSATTAYLQIHNLTNEDTATYFCARDPHSYGNSPAWFPYWGQGTLVTVSA
VL: DIVMTQSQKFMSTTIRDRVSITCKASQNVGISVAWYQQKSGQSPKLLIYSASNRYTGVPDRFTGSGSGTDFTLTISNMQSEDLADYFCQQYSSYPLTFGSGTKLAIK
EC50 [2]: 4.21 nM | TOP MFI [2]: 54800 MFI | Kd [3]: 6.14 nM | koff [3]: 0.00378 s⁻¹ | kon [3]: 616000 M⁻¹ s⁻¹ | EC50 [4]: 2.95 nM | TOP MFI [4]: 32400 MFI

B5: 005 (antibody, V domains shown)
VH: EVKLVESGGGLVQPGGSLSLSCAASGFTFTDYYMSWVRQPPGKALEWLGFIKNEANGYTTESSASVKGRFTISRDNSQSILYLQMNALRAEDSATYYCARYDYYGSNYNWYFDAWGTGTTVTVSS
VL: DIVMTQSQKFMSPSVGDRVSITCKASQNVRTAVAWYQQKPGQSPKVLIHLASKRHTGVPDRFTGSGSGTDFTLTISNVQSEDLADYFCLQHWIHPLTFGAGTKLELK
MFI at 10 nM [1]: 5970 MFI

B6: 059c (antibody, V domains shown)
VH: QVQLQQSGPELVKPGASVKMSCKASGYTFSEYVLSWVKQRTGQGLEWIGEIYPGTITTYYNEKFKGKATLTADKSSNTAYIQLTSLTSEDSAVYFCGRFYDYDGGWFAYWGQGTLLTVSA
VL: ENVLTQSPEKMAVSLGQKVTMTCSASSSVSSSDLHWYQQKSGASPKPLIHGTSNLASGVPARFSGSGSGTSYSLTISSVEAEDAATYYCQQWSGYPWTFGGGTNLEIK
EC50 [2]: 12 nM | TOP MFI [2]: 19600 MFI | EC50 [4]: 17.2 nM | TOP MFI [4]: 17400 MFI

B9: 059 (antibody, V domains shown)
VH: QVQLQQSGPELVKPGASVKMSCKASGYTFSEYVLSWVKQRTGQGLEWIGEIYPGTITTYYNEKFKGKATLTADKSSNTAYIQLTSLTSEDSAVYFCGRFYDYDGGWFAYWGQGTLLTVSA
VL: ENVLTQSPEKMAVSLGQKVTMTCSASSSVSSSDLHWYQQKSGASPKPLIHGTSNLASGVPARFSGSGSGTSYSLTISSVEAEDAATYYCQQWSGYPWTFGGGTNLEIK
MFI at 10 nM [1]: 5840 MFI

B17: 015 (antibody, V domains shown)
VH: EVQLQQSGVEVVQPGASVKLSCTASGFNIEAYYMHWVKQRTEQGLEWIGRIDPEDGESKYAPKFQGKATMTADTSSSTAYLQLSSLTSDDTAVYYCVRGSYEYWGQGTTLTVSS
VL: QIVLTQSPAIMSASPGEKVTLTCSASSSVSSSYLYWYQQKPGSSPKLWIYSTSNLASGVPPRFSGSGSGTSYSLTISSMQAEDAASYFCYQWSSYPYTFGGGTKLEIK
MFI at 10 nM [1]: 10800 MFI

B18: 005c (antibody, V domains shown)
VH: EVKLVESGGGLVQPGGSLSLSCAASGFTFTDYYMSWVRQPPGKALEWLGFIKNEANGYTTESSASVKGRFTISRDNSQSILYLQMNALRAEDSATYYCARYDYYGSNYNWYFDAWGTGTTVTVSS
VL: DIVMTQSQKFMSPSVGDRVSITCKASQNVRTAVAWYQQKPGQSPKVLIHLASKRHTGVPDRFTGSGSGTDFTLTISNVQSEDLADYFCLQHWIHPLTFGAGTKLELK
EC50 [2]: 5.47 nM | TOP MFI [2]: 53300 MFI

More lines, now with the values ahead:

EC50 [2]: 3.31 nM | TOP MFI [2]: 46700 MFI | EC50 [4]: 2.64 nM | TOP MFI [4]: 32300 MFI
B7: 071c (antibody, V domains shown)
VH: QIQLVQSGPELKKPGETVKISCKASGYTFTTYGMSWVKQAPGKGLKWMVWINTYSGVPTYADDFQGRFAFSLETSASTSYLQINNLRNEDTATYFCARDPHYYGTSPAWFAYWGQGTLVTVSA
VL: DIVMTQSQKFMSTTIGDRVIITCKASQIVGIAVAWYQQKPGQSPKLLIYSASNRFTGVPDRFTGSGSGTDFTLTISNMQSEDLADYFCQQYSTYPFTFGSGTKLEIK

EC50 [2]: 2.12 nM | TOP MFI [2]: 47300 MFI | EC50 [4]: 1.76 nM | TOP MFI [4]: 30700 MFI
B8: 073c (antibody, V domains shown)
VH: QIQLVQSGPELKKPGETVKISCKASGYTFTTYGMSWVKQAPGKGLKWMVWINTYSGVPTYADDFKGRFAFSLETSASTSYLQINNLKNEDTATYFCARDPHYYGSSPAWFVYWGQGTLVTVSA
VL: DIVMTQSQKFMSTTIGDRVSITCEASQIVGIAVAWYQQKPGQSPKLLIYSASNRYTGVPDRFTGSGSGTDFTLTISNMQSEDLANYFCQQYSAYPFTFGSGTKLEVK

MFI at 10 nM [1]: 8370 MFI
B10: 071 (antibody, V domains shown)
VH: QIQLVQSGPELKKPGETVKISCKASGYTFTTYGMSWVKQAPGKGLKWMVWINTYSGVPTYADDFQGRFAFSLETSASTSYLQINNLRNEDTATYFCARDPHYYGTSPAWFAYWGQGTLVTVSA
VL: DIVMTQSQKFMSTTIGDRVIITCKASQIVGIAVAWYQQKPGQSPKLLIYSASNRFTGVPDRFTGSGSGTDFTLTISNMQSEDLADYFCQQYSTYPFTFGSGTKLEIK

MFI at 10 nM [1]: 7850 MFI
B11: 073 (antibody, V domains shown)
VH: QIQLVQSGPELKKPGETVKISCKASGYTFTTYGMSWVKQAPGKGLKWMVWINTYSGVPTYADDFKGRFAFSLETSASTSYLQINNLKNEDTATYFCARDPHYYGSSPAWFVYWGQGTLVTVSA
VL: DIVMTQSQKFMSTTIGDRVSITCEASQIVGIAVAWYQQKPGQSPKLLIYSASNRYTGVPDRFTGSGSGTDFTLTISNMQSEDLANYFCQQYSAYPFTFGSGTKLEVK

Kd [5]: 3.39 nM | koff [5]: 0.0056 s⁻¹ | kon [5]: 1.65e+06 M⁻¹ s⁻¹ | EC50 [6]: 0.87 nM | TOP MFI [6]: 46400 MFI
B12: hu025.021 (antibody, V domains shown)
VH: EVQLVQSGAEVKKPGATVKISCKVSGFNIKDYYMHWVQQAPGKGLEWIGRIDPEDAETKYAPKFQGRVTITADTSTNTAYMELSSLRSEDTAVYYCDRGLAYWGQGTLVTVSS
VL: EIVLTQSPATLSLSPGERATLSCSASSSVSSSYLYWYQQKPGQAPKLWIYSTSNLASGIPARFSGSGSGTDYTLTISSLEPEDFAVYYCHQWSSYPYTFGQGTKLEIK

Kd [5]: 2.78 nM | koff [5]: 0.00492 s⁻¹ | kon [5]: 1.77e+06 M⁻¹ s⁻¹ | EC50 [6]: 0.81 nM | TOP MFI [6]: 45800 MFI | IC50 [7]: 0.75 nM | TOP blocking (%) [7]: 100%
B13: hu025.023 (antibody, V domains shown)
VH: EVQLVQSGAEVKKPGATVKISCKVSGFNIKDYYMHWVQQAPGKGLEWIGRIDPEDAETKYAPKFQGRVTITADTSTNTAYMELSSLRSEDTAVYYCDRGLAYWGQGTLVTVSS
VL: EIVLTQSPATLSLSPGERATLSCSASSSVSSSYLYWYQQKPGQAPKLWIYSTSNLASGIPARFSGSGSGTDFTLTISSLEPEDFAVYYCHQWSSYPYTFGQGTKLEIK

EC50 [6]: 0.62 nM | TOP MFI [6]: 39800 MFI
B14: hu025.033 (antibody, V domains shown)
VH: EVQLVQSGAEVKKPGATVKISCKVSGFNIKDYYMHWVQQAPGKGLEWIGRIDPEDAETKYAPKFQGRVTITADTSTDTAYMELSSLRSEDTAVYYCDRGLAYWGQGTLVTVSS
VL: EIVLTQSPATLSLSPGERATLSCSASSSVSSSYLYWYQQKPGQAPKLWIYSTSNLASGIPARFSGSGSGTDYTLTISSLEPEDFAVYYCHQWSSYPYTFGQGTKLEIK

Kd [5]: 2.76 nM | koff [5]: 0.00392 s⁻¹ | kon [5]: 1.42e+06 M⁻¹ s⁻¹ | EC50 [6]: 0.75 nM | TOP MFI [6]: 47300 MFI
B15: hu025.059 (antibody, V domains shown)
VH: EVQLVQSGAEVKKPGATVKISCKASGFNIKDYYMHWVQQAPGKGLEWIGRIDPEDAETKYAPKFQGRVTITADTSTNTAYMELSSLRSEDTAVYYCDRGLAYWGQGTLVTVSS
VL: EIVLTQSPATLSLSPGERATLSCSASSSVSSSYLYWYQQKPGQAPKLWIYSTSNLASGIPARFSGSGSGTDYTLTISSLEPEDFAVYYCHQWSSYPYTFGQGTKLEIK

Kd [5]: 2.34 nM | koff [5]: 0.00344 s⁻¹ | kon [5]: 1.47e+06 M⁻¹ s⁻¹ | EC50 [6]: 0.8 nM | TOP MFI [6]: 48800 MFI | IC50 [7]: 0.77 nM | TOP blocking (%) [7]: 99.8%
B16: hu025.060 (antibody, V domains shown)
VH: EVQLVQSGAEVKKPGATVKISCKASGFNIKDYYMHWVQQAPGKGLEWIGRIDPEDAETKYAPKFQGRVTITADTSTNTAYMELSSLRSEDTAVYYCDRGLAYWGQGTLVTVSS
VL: EIVLTQSPATLSLSPGERATLSCSASSSVSSSYLYWYQQKPGQAPKLWIYSTSNLASGIPARFSGSGSGTDFTLTISSLEPEDFAVYYCHQWSSYPYTFGQGTKLEIK
